# Results taken from patent publication US20260335397A1, “TREATMENT OF GEOGRAPHIC ATROPHY” (Apellis Pharmaceuticals, Inc., priority 2022, published 2026).
# Experiments:
# [1] = system: geographic atrophy (GA) secondary to age-related macular degeneration (AMD); assay: Post-hoc SD-OCT analysis of PR and RPE loss, OAKS and DERBY studies; assay type: in vivo, human; settings: 12 months; for RPE loss, difference EM vs EOM / PR loss, difference EM vs EOM: monthly vs every other month; for PR loss, difference EM vs. Sham Pooled / RPE loss, difference EM vs. Sham Pooled: monthly
# Description: LS means estimated from MMRM analysis. The mITT population was used for the analysis, defined as all randomized patients who received at least 1 injection of pegcetacoplan or sham and had baseline and at least one post-baseline value of GA lesion area in the study eye. FOV=field of view; LS=least square; M=month; mITT=modified intent-to-treat; MMRM=mixed-effects model for repeated measures; PEOM=pegcetacoplan every other month; PM=pegcetacoplan monthly; PR=photoreceptor; RPE=retinal pigment epithelium; SE=standard error.
# LS means estimated from MMRM analysis. The mITT population was used for the analysis, defined as all randomized patients who received at least 1 injection of pegcetacoplan or sham and had baseline and at least one post-baseline value of GA lesion area in the study eye. FOV-field of view; LS=least square; M=month; mITT=modified intent-to-treat; MMRM=mixed-effects model for repeated measures; PEOM=pegcetacoplan every other month; PM=pegcetacoplan monthly; PR=photoreceptor; RPE=retinal pigment epithelium; SE=standard error.
# Spectral-domain optical coherence tomography (OCT) allows for cross sectional visualization of the neurosensory retina, including the photoreceptor (PR) layer, as well as the retinal pigment epithelium (RPE) and other retinal structures. […] A post-hoc analysis that assessed the ability of pegcetacoplan treatment to reduce PR and RPE loss in patients with GA was performed using SD-OCT images acquired from a subgroup of patients in the OAKS and DERBY studies, namely those for whom Spectralis SD-OCT images were available. Automated, deep learning based segmentation of RPE loss and PR thickness on SD-OCT volumes acquired at baseline and months 2, 4, 6, 8, 10, and 12 was performed according to previously published methods. The difference in the change from baseline of RPE loss area and of PR loss area (determined based on PR thickness measurements) was compared among the monthly, every other month, and pooled sham treatment arms using LS Mean MMRM modeling. […] The magnitude of the treatment effects at 12 months, as determined using LS mean MMRM modeling, are summarized below.
# [2] = Phase 3 safety: TEAEs and tolerability, OAKS and DERBY; assay type: in vivo, human; settings: for Endophthalmitis (serious ocular TEAE), % / Endophthalmitis (serious ocular TEAE), M (number of events): infectious and non-infectious
# Experimental: All randomized subjects returned every month to the clinical site for assessments and additional pegcetacoplan or sham injections according to their randomization scheme until Month 12. From Month 12 onwards, subjects return to the clinical site based on their randomized treatment schedule (monthly or EOM) and follow the treatment regimen and assessments outlined in the Visit Schedule until Month 24. Safety was assessed throughout the study by a number of evaluations including: monitoring of AEs, preinjection and postinjection monitoring, blood and urine samples collected, physical examination, vital signs, and follow-up phone calls. Blood samples were also be collected for anti-therapeutic antibodies, genotyping, and clinical repository (if the subject consented to this portion).
# Safety endpoints included incidence and severity of ocular and systemic treatment-emergent adverse events; incidence of ADA directed against pegcetacoplan peptide or PEG; incidence of new active CNV in the study eye; incidence of new onset of subclinical CNV in the study eye; incidence of subjects who lost letters based on NL-BCVA categories (≥15, ≥15-<30, ≥30 ETDRS letters); change/shift from baseline in clinical labs and incidence of abnormal lab values; change from baseline in vital signs and incidence of abnormal vital sign results; shift from baseline in ocular examination assessments including slit-lamp examination and indirect ophthalmoscopy; change from baseline in Intra Ocular Pressure (IOP) and incidence of IOP above specified thresholds; and change/shift from baseline in ocular imaging assessments (including specular microscopy; select sites).
# The Safety set consisted of all subjects randomized who received at least one injection of pegcetacoplan or sham. Subjects were analyzed according to the actual treatment received. […] This population was used for all safety analyses.
# [3] = DERBY, PEOM (N = 208), 24 months
# [4] = OAKS, PEOM (N = 212), 24 months
substance,measurement,setting,value
"Poly(oxy-1,2-ethanediyl), α-hydro-ω-hydroxy-, 15,15′-diester with N-acetyl-L-isoleucyl-L-cysteinyl-L-valyl-1-methyl-L-tryptophyl-L-glutaminyl-L-α-aspartyl-L-tryptophylglycyl-L-alanyl-L-histidyl-L-arginyl-L-cysteinyl-L-threonyl-2-[2-(2-aminoethoxy)ethoxy]acetyl-N^6-carboxy-L-lysinamide cyclic (2->12)-(disulfide) [pegcetacoplan]",PR loss and RPE loss compared with sham,"[1]; DERBY and OAKS, monthly and every other month",statistically significant reduction in PR loss and RPE loss at 12 months
same,"PR loss, difference every other month vs. Sham pooled","[1]; DERBY, every other month, p<0.0001",−61.0%
same,"RPE loss, difference every other month vs. Sham pooled","[1]; DERBY, every other month, p<0.0065",−20.4%
same,"RPE loss, difference EM vs EOM","[1]; DERBY, p=0.0103",−19.6%
same,"PR loss, difference EM vs EOM","[1]; DERBY, p=0.0785",−42%
same,"PR loss, difference EM vs. Sham Pooled","[1]; DERBY, p<0.0001",−77.4%
same,"RPE loss, difference EM vs. Sham Pooled","[1]; DERBY, p<0.0001",−36.0%
same,"PR Loss, difference EOM vs. Sham pooled","[1]; OAKS, every other month, p<0.0001",−47.7%
same,"RPE loss, difference every other month vs. Sham pooled","[1]; OAKS, every other month, p=0.0342",−14.8%
same,"PR loss, difference EM vs EOM","[1]; OAKS, p=0.0049",−51.3%
same,"RPE loss, difference EM vs EOM","[1]; OAKS, p=0.5282",−5.7%
same,"PR loss, difference EM vs. Sham Pooled","[1]; OAKS, p<0.0001",−74.5%
same,"RPE loss, difference EM vs. Sham Pooled","[1]; OAKS, p=0.0070",−19.7%
same,"All TEAEs, %",[2]; [3],(86.5%)
same,"Iridocyclitis (serious ocular TEAE), %",[2]; [3],0.5%
same,"Iridocyclitis (serious ocular TEAE), M (number of events)",[2]; [3],1 M
same,"Non-ocular TEAEs, patients, %",[2]; [3],(68.3%)
same,"Ocular TEAEs in study eye, patients, %",[2]; [3],(51.9%)
same,"Serious ocular TEAEs in the study eye, %",[2]; [3],1.0%
same,"Serious ocular TEAEs in the study eye, M (number of events)",[2]; [3],4 M
same,"Uveitis (serious ocular TEAE), %",[2]; [3],1.0%
same,"Uveitis (serious ocular TEAE), M (number of events)",[2]; [3],2 M
same,"Visual acuity reduced (serious ocular TEAE), %",[2]; [3],0.5%
same,"Visual acuity reduced (serious ocular TEAE), M (number of events)",[2]; [3],1 M
same,"All TEAEs, %","[2]; DERBY, PM (N = 206), 24 months",(86.4%)
same,"Non-ocular TEAEs, patients, %","[2]; DERBY, PM (N = 206), 24 months",(79.1%)
same,"Ocular TEAEs in study eye, patients, %","[2]; DERBY, PM (N = 206), 24 months",(60.7%)
same,"Optic ischemic neuropathy (serious ocular TEAE), %","[2]; DERBY, PM (N = 206), 24 months",0.5%
same,"Optic ischemic neuropathy (serious ocular TEAE), M (number of events)","[2]; DERBY, PM (N = 206), 24 months",1 M
same,"Retinal tear (serious ocular TEAE), %","[2]; DERBY, PM (N = 206), 24 months",0.5%
same,"Retinal tear (serious ocular TEAE), M (number of events)","[2]; DERBY, PM (N = 206), 24 months",1 M
same,"Serious ocular TEAEs in the study eye, %","[2]; DERBY, PM (N = 206), 24 months",1.9%
same,"Serious ocular TEAEs in the study eye, M (number of events)","[2]; DERBY, PM (N = 206), 24 months",4 M
same,"Vitritis (serious ocular TEAE), %","[2]; DERBY, PM (N = 206), 24 months",1.0%
same,"Vitritis (serious ocular TEAE), M (number of events)","[2]; DERBY, PM (N = 206), 24 months",2 M
same,"All TEAEs, %",[2]; [4],(88.2%)
same,"Non-ocular TEAEs, patients, %",[2]; [4],(77.8%)
same,"Ocular TEAEs in study eye, patients, %",[2]; [4],(58.0%)
same,"Retinal detachment (serious ocular TEAE), %",[2]; [4],0.5%
same,"Retinal detachment (serious ocular TEAE), M (number of events)",[2]; [4],1 M
same,"Serious ocular TEAEs in the study eye, %",[2]; [4],1.9%
same,"Serious ocular TEAEs in the study eye, M (number of events)",[2]; [4],4 M
same,"Endophthalmitis (serious ocular TEAE), %",[2]; [4],1.4%
same,"Endophthalmitis (serious ocular TEAE), M (number of events)",[2]; [4],3 M
same,"All TEAEs, %","[2]; OAKS, PM (N = 213), 24 months",(90.1%)
same,"Hyphema (serious ocular TEAE), %","[2]; OAKS, PM (N = 213), 24 months",0.5%
same,"Hyphema (serious ocular TEAE), M (number of events)","[2]; OAKS, PM (N = 213), 24 months",1 M
same,"Non-ocular TEAEs, patients, %","[2]; OAKS, PM (N = 213), 24 months",(81.7%)
same,"Ocular TEAEs in study eye, patients, %","[2]; OAKS, PM (N = 213), 24 months",(62.4%)
same,"Optic ischemic neuropathy (serious ocular TEAE), %","[2]; OAKS, PM (N = 213), 24 months",0.9%
same,"Optic ischemic neuropathy (serious ocular TEAE), M (number of events)","[2]; OAKS, PM (N = 213), 24 months",2 M
same,"Papilledema (serious ocular TEAE), %","[2]; OAKS, PM (N = 213), 24 months",0.5%
same,"Papilledema (serious ocular TEAE), M (number of events)","[2]; OAKS, PM (N = 213), 24 months",1 M
same,"Retinal detachment (serious ocular TEAE), %","[2]; OAKS, PM (N = 213), 24 months",0.5%
same,"Retinal detachment (serious ocular TEAE), M (number of events)","[2]; OAKS, PM (N = 213), 24 months",1 M
same,"Serious ocular TEAEs in the study eye, %","[2]; OAKS, PM (N = 213), 24 months",2.3%
same,"Serious ocular TEAEs in the study eye, M (number of events)","[2]; OAKS, PM (N = 213), 24 months",7 M
same,"Endophthalmitis (serious ocular TEAE), %","[2]; OAKS, PM (N = 213), 24 months",0.9%
same,"Endophthalmitis (serious ocular TEAE), M (number of events)","[2]; OAKS, PM (N = 213), 24 months",2 M
same,tolerability,[2]; both Phase 3 studies,well tolerated
